Values quoted from earlier work as cited in patent US20100028328A1, “TOPICAL TREATMENT FOR DISEASES OF EYE SURFACE” (THERAKINE, LTD., priority 2006, published 2010).

How the values were obtained:
[1] = tested on: Herpetic Stromal Keratitis (HSK), Herpes simplex virus infection of the cornea; details: treatment of HSK
[2] = tested on: allogeneic corneal transplants; details: topical treatment

IL-1 ra: receptor antagonist to IL-1
influx of cells of the innate and adaptive immune system into the cornea [1]: reduce the influx of cells of the innate and adaptive immune system into the cornea

B1: TNFR-I: a TNF antagonist; topical soluble tumor necrosis factor receptor type I (protein, UniProt P19438 30-211, looked up)
extracellular domain: LVPHLGDREKRDSVCPQGKYIHPQNNSICCTKCHKGTYLYNDCPGPGQDTDCRECESGSFTASENHLRHCLSCSKCRKEMGQVEISSCTVDRDTVCGCRKNQYRHYWSENLFQCFNCSLCLNGTVHLSCQEKQNTVCTCHAGFFLRENECVSCSNCKKSLECTKLCLPQIENVKGTEDSGTT
modifications: extracellular domain
acceptance of allogeneic corneal transplants [2]: promoted the acceptance of allogeneic corneal transplants | gene expression of chemokines associated with corneal graft rejection (RANTES, macrophage inflammatory protein-1beta) [2]: inhibited gene expression of 2 chemokines
